Legend:
[1] = test system: P. aeruginosa serogroup 05 strain (PAO1.lux); experiment: Opsonophagocytic killing (OPK) assay with luminescent PAO1.lux, HL-60 cells and baby rabbit serum; type: cell-based, Pseudomonas aeruginosa; settings: FIG. 2A
Description: (§1) This example describes the evaluation of prioritized human IgG1 antibodies to promote OPK of P. aeruginosa. […] OPK assays were performed as described in (DiGiandomenico, A., et al., Infect Immun 72, 7012-7021 (2004)), with modifications. Briefly, assays were performed in 96-well plates using 0.025 ml of each OPK component; P. aeruginosa strains; diluted baby rabbit serum; differentiated HL-60 cells; and monoclonal antibody. In some OPK assays, luminescent P. aeruginosa strains, which were constructed as described (Choi, K. H., et al., Nat Methods 2, 443-448 (2005))., were used. Luminescent OPK assays were performed as described above but with determination of relative luciferase units (RLUs) using a Perkin Elmer ENVISION Multilabel plate reader (Perkin Elmer).

[2] = test system: P. aeruginosa serogroup 011 strain (9882-80.lux); experiment: OPK assay with luminescent 9882-80.lux; type: cell-based, Pseudomonas aeruginosa; settings: FIG. 2B
Description: as §1
The ability of the WapR-004 and Cam-003 antibodies to mediate OPK activity against another clinically relevant O-antigen serotype strain, 9882-80.lux, was evaluated.

[3] = test system: P. aeruginosa PAO1.lux attachment to A549 cells; experiment: Cell attachment assay, PAO1.lux on A549 cells; type: cell-based, Pseudomonas aeruginosa; settings: MOI 10, FIG. 4
Description: Anti-Psl antibodies were added to a confluent monolayer of A549 cells (an adenocarcinoma human alveolar basal epithelial cell line) grown in opaque 96-well plates (Nunc Nunclon Delta). Log-phase luminescent P. aeruginosa PAO1 strain (PAO1.lux) was added at an MOI of 10. After incubation of PAO1.lux with A549 cells at 37° C. for 1 hour, the A549 cells were washed, followed by addition of LB+0.5% glucose. Bacteria were quantified following a brief incubation at 37° C. as performed in the OPK assay described in Example 2. Measurements from wells without A549 cells were used to correct for non-specific binding.

P. aeruginosa 6294 (O6) = experiment: Acute pneumonia model in mice, strain 6294; type: in vivo, Pseudomonas aeruginosa; settings: for Overall Impression, lung histology: BALB/c mice
Description: (§2) Antibodies or PBS were administered 24 hours before infection in each model. P. aeruginosa acute pneumonia, keratitis, and thermal injury infection models were performed as described (DiGiandomenico, A., et al., Proc Natl Acad Sci USA 104, 4624-4629 (2007)), with modifications. In the acute pneumonia model, BALB/c mice (The Jackson Laboratory) were infected with P. aeruginosa strains suspended in a 0.05 ml inoculum. In the thermal injury model, CF-1 mice (Charles River) received a 10% total body surface area burn with a metal brand heated to 92° C. for 10 seconds. Animals were infected subcutaneously with P. aeruginosa strain 6077 at the indicated dose. For organ burden experiments, acute pneumonia was induced in mice followed by harvesting of lungs, spleens, and kidneys 24 hours post-infection for determination of CFU.

[4] = test system: P. aeruginosa 6077 (O11, cytotoxic); experiment: Acute pneumonia model in mice, strain 6077; type: in vivo, Pseudomonas aeruginosa; settings: WapR-004 5 and 1 mg/kg; 6077 (O11) 8×10^5 or 6×10^5 CFU; FIG. 6E-F
Description: as §2

[5] = test system: P. aeruginosa 6206 (O11-ExoU+); experiment: Acute pneumonia model in mice, strain 6206; type: in vivo, Pseudomonas aeruginosa
Description: as §2

[6] = test system: P. aeruginosa 6077 (O11-cytotoxic); experiment: Corneal infection (keratitis) model in mice, strain 6077; type: in vivo, Pseudomonas aeruginosa; settings: antibody 24 h prior to 6077 (2×10^6 CFU); FIG. 8A-D, F-G
Description: as §2
Cam-003 and WapR-004 efficacy was next evaluated in a P. aeruginosa corneal infection model which emphasizes the pathogens ability to attach and colonize damaged tissue. […] FIG. 8 (H): The activity of anti-Psl and anti-PcrV monoclonal antibodies V2L2 was tested in a P. aeruginosa mouse ocular keratitis model. C3H/HeN mice were injected intraperitoneally (IP) with PBS or a control IgG1 antibody (R347) at 45 mg/kg or WapR-004 (α-Psl) at 5 mg/kg or V2L2 (α-PcrV) at 5 mg/kg, 16 hours prior to infection with 6077 (O11-cytotoxic−1×10^6 CFU) Immediately before infection, mice were anesthetized followed by initiation of three 1 mm scratches on the cornea and superficial stroma of one eye of each mouse using a 27-gauge needle under a dissection microscope, followed by topical application of P. aeruginosa 6077 strain in a 5 μl inoculum. Eyes were photographed at 48 hours post infection followed by corneal grading by visualization of eyes under a dissection microscope. Grading of corneal infection was performed as previously described by Preston et al. (Preston, M J., 1995, Infect. Immun. 63:3497). Briefly, infected eyes were graded 48 h after infection with strain 6077 by an investigator who was unaware of the animal treatments. The following grading scheme was used: grade 0, eye macroscopically identical to an uninfected eye; grade 1, faint opacity partially covering the pupil; grade 2, dense opacity covering the pupil; grade 3, dense opacity covering the entire pupil; grade 4, perforation of the cornea (shrinkage of the eyeball).

[7] = test system: P. aeruginosa 6077 (exoU+); experiment: Rabbit red blood cell lysis inhibition assay with strain 6077; type: cell-based, Pseudomonas aeruginosa; settings: strain 6077; FIG. 12D-E
Description: Percent inhibition of cytotoxicity analysis was analysed for the parental V2L2 mAb, mAb166 (positive control) and R347 (negative control), where the antibodies were administered to cultured broncho-epithelial cell line A549 combined with log-phase P. aeruginosa strain 6077 (exoU+) at a MOI of approximately 10. A549 lysis was assayed by measuring released lactate dehydrogenase (LDH) activity and lysis in the presence of mAbs was compared to wells without mAb to determine percent inhibition. The V2L2 mAb, mAb166 (positive control) and R347 (negative control) were evaluated for their ability to prevent lysis of RBCs, where the antibodies were mixed with log-phase P. aeruginosa 6077 (exoU^+) and washed rabbit red blood cells (RBCs) and incubated for 2 hours at 37°. Intact RBCs were pelleted and the extent of lysis determined by measuring the OD405 of the cell-free supernatant. Lysis in the presence of anti-PcrV mAbs was compared to wells without mAb to determine percent inhibition.

rPcrV protein = experiment: Binding kinetics on Bio-Rad ProteOn XPR36; set-up: species or system Pseudomonas aeruginosa; settings: antibody captured, rPcrV injected; FIG. 12G-H
Description: Binding kinetics of V2L2-GL and V2L2-MD were measured using a Bio-Rad ProteOn™ XPR36 instrument. Antibodies were captured on a GLC bisensor chip using anti-human IgG reagents. rPcrV protein was injected at multiple concentrations and the dissociation phase followed for 600 seconds. Data was captured and analyzed using ProteOn Manager software. […] The clone V2L2-MD had increased Kd by 2-3 folds over V2L2-GL.

[8] = 1.33×10^7 CFU 6294, 0.2 mg/kg (combination 0.1 mg/kg ea), Table 6A
[9] = 1.7×10^7 CFU 6294, 0.2 mg/kg (combination 0.1 mg/kg ea), Table 6B
[10] = 5.25×10^5 cfu 6206, single antibody: R347 2.1 mg/kg, V2L2 0.1 mg/kg, WapR-004 0.5 mg/kg, Table 5
[11] = 9.25×10^5 CFU 6206, 0.2 mg/kg (combination 0.1 mg/kg ea), Table 7

B1: WapR-004: anti-Psl human IgG1 monoclonal antibody; VH SEQ ID NO: 11, VL SEQ ID NO: 12 (antibody, V domains shown)
VH: EVQLLESGPGLVKPSETLSLTCNVAGGSISPYYWTWIRQPPGKGLELIGYIHSSGYTDYNPSLKSRVTISGDTSKKQFSLHVSSVTAADTAVYFCARGDWDLLHALDIWGQGTLVTVSS
VL: EIVLTQSPSSLSTSVGDRVTITCRASQSIRSHLNWYQQKPGKAPKLLIYGASNLQSGVPSRFSGSGSGTDFTLTISSLQPEDFATYYCQQSYSFPLTFGGGTKLEIK
modifications: WapR-004 VH; WapR-004 & WarR-004RAD VL
- OPK activity, in words [1]: superior OPK activity
- OPK activity against strain 9882-80 (O11) [2]: extends to strain 9882-80 (O11)
- reduction of P. aeruginosa cell attachment to A549 cells compared to the negative control (up to) [3]: ~80%
- Hemorrhage, extent in words (P. aeruginosa 6294 (O6); [8]): Extensive
- Inflammatory Infiltrate (P. aeruginosa 6294 (O6); [8]): PMN 3+
- Involved Lung Surface Area (P. aeruginosa 6294 (O6); [8]): 57%
- Bacteria (P. aeruginosa 6294 (O6); [9]): Neg-2+
- Inflammatory Infiltrate (P. aeruginosa 6294 (O6); [9]): PMN 2+
- Involved Lung Surface Area (P. aeruginosa 6294 (O6); 1.7×10^7 CFU 6294, 0.2 mg/kg, Table 6B): 40%
- organ burden after induction of acute pneumonia (P. aeruginosa 6294 (O6); 6294 (~1×10^7 CFU), 15, 5, 1 mg/kg, FIG. 7E): reduced organ burden
- Overall Impression, lung histology (P. aeruginosa 6294 (O6); [8]): Broncho interstitial pneumonia
- Overall Impression, lung histology (P. aeruginosa 6294 (O6); [9]): Broncho interstitial pneumonia
- survival [4]: significant concentration-dependent survival
- organ burden / tissue clearance (lung, spleen, kidney CFU) ([5]; 5.25×10^5 cfu 6206, V2L2 0.1 mg/kg, W4-RAD 0.5 mg/kg, combination, 24 h post infection, FIG. 15): effective in lowering organ burden
- Inflammatory Infiltrate [5, 10]: PMN 2-3+
- Involved Lung Surface Area [5, 10]: 50%
- Overall Impression, lung histology [5, 10]: Broncho interstitial pneumonia
- Bacteria [5, 11]: Neg-1+
- Inflammatory Infiltrate [5, 11]: PMN 1-2+
- Involved Lung Surface Area [5, 11]: 36%
- organ burden after induction of acute pneumonia ([5]; 6206 (~1×10^6 CFU), 15, 5, 1 mg/kg, FIG. 7F): reduced organ burden
- Overall Impression, lung histology ([5]; BALB/c mice, 9.25×10^5 CFU 6206, 0.2 mg/kg (combination 0.1 mg/kg ea), Table 7): Broncho interstitial pneumonia
- bacterial counts in total eye homogenates compared to negative control [6]: reduced bacterial counts in total eye homogenates
- corneal pathology compared to negative control-treated animals [6]: significantly less pathology

B2: V2L2-MD: optimized V2L2-GL mAb; germlined lead optimized anti-PcrV antibody used in Bs4-GLO (antibody, V domains shown)
VH: EMQLLESGGGLVQPGGSLRLSCAASGFTFSSYAMNWVRQAPGEGLEWVSAITISGITAYYTDSVKGRFTISRDNSKNTLYLQMNSLRAGDTAVYYCAKEEFLPGTHYYYGMDVWGQGTTVTVSS
VL: AIQMTQSPSSLSASVGDRVTITCRASQGIRNDLGWYQQKPGKAPKLVIYSASTLQSGVPSRFSGSGSGTDFTLSISSLQPDDFATYYCLQDYNYPWTFGQGTKVEIK
modifications: V2L2-MD VH; V2L2-MD and V2L2-GL VL
- prevention of RBC lysis [7]: demonstrated prevention of RBC lysis
- Kd increased over V2L2-GL (rPcrV protein): 2-3 folds

Source: patent publication US20150284450A1, “COMBINATION THERAPIES USING ANTI-PSEUDOMONAS PSL AND PCRV BINDING MOLECULES” (priority 2012, published 2015)
